From the supplement of paper PMC9170038

Test system: K4 kissing-loop RNA reporter
Experiment: apparent KD of K4 kissing-loop reporter; higher = weaker reporter binding
Settings: Eterna round: R107
Method: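 RNA-MaP round R107: designed RNA switches with theophylline, tryptophan, arginine or FMN aptamers are transcribed on-chip within common flanks. They are titrated with a labelled K4 kissing-loop RNA reporter in RNA-MaP buffer (100 mM Tris pH 7.5, 80 mM KCl, 4 mM MgCl2), without ligand or with the indicated ligand. Median apparent KD per design.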

[1] = input ligand: theophylline 20 uM
[2] = input ligand: tryptophan 2.4 mM
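Further: bound reporter read as fluorescence of individual clusters on recovered sequencing chips by microscopy, with normalized cluster intensities fitted with a binding model.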

Sequence | apparent KD of K4 kissing-loop reporter (input ligand: FMN 200 uM) | apparent KD of K4 kissing-loop reporter (input ligand: arginine 13.2 mM) | apparent KD of K4 kissing-loop reporter (input ligand: none) | apparent KD of K4 kissing-loop reporter [1] | apparent KD of K4 kissing-loop reporter [2]
CCGGCCCGGCCGGAUACCAGUGCGCCGCUGUGAACUGCGGGCCCAGAGUGAUGUUCGGGACACCCUUGGCAGCCGCCUGGGUCGC [#2 Same State - Theophylline B Attempt #26 (HarryS)] | 358 nM | 380 nM | 444 nM | 325 nM | 341 nM
CCGGGCGGCCGAAGGAGCGGGCGGACCCGAGUGAUGUUCGGGUGGCCCGUGAGGGCCGGUGCCCAGGUAGGUCGCGGAUCCGCCC [#2 Same State - Arginine B Attempt #3 (HarryS)] | 155 nM | 120 nM | 140 nM | 116 nM | 135 nM
CCGUGGAGUGAUGUUCCACGUACUACGGAUACCAGCUUUGCCAAAGGCCCUUGGCAGCCGCACGGCUCAGUGAUGUUGGGUCGCG [Same State Theophylline A G10] | 167 nM | 153 nM | 172 nM | 156 nM | 148 nM
CCUAGUGAUGUUAGGUCGUGCUCCUAUGAUACCAGCGUAGUCACUCGCCCUUGGCAGCAUUCCUUAUAAGGCGGUCGGGCGCGGU [theeternabot_sameState_KL_Theo_A_34] | 218 nM | 104 nM | 193 nM | 158 nM | 154 nM
CCUAUCUCAUACGAUACCAGUCAAAAUAUAAUUAACCAGUGAUGUUGGAUUUACCAAGGAGACCCUUGGCAGCGUAUGGGAUAGG [Ex Theophylline B K4 18] | 387 nM | 412 nM | 410 nM | 517 nM | 540 nM
CCUAUCUCAUACGAUACCAGUCAACGAGUGAUGUUCGAAUAAAUAAAUUUGCCAUAUAAUGACCCUUGGCAGCGUAUGGGAUAGG [Ex Theophylline B K4 14] | 352 nM | 373 nM | 337 nM | 431 nM | 334 nM
CCUAUCUCAUACGAUACCAGUCAAUGAAAUUUUAUCAAUGCCAUCACCGAGUGAUGUUCGGACCCUUGGCAGCGUAUGGGAUAGG [Ex Theophylline B K4 3] | 249 nM | 195 nM | 237 nM | 329 nM | 223 nM
CCUAUCUCAUACGAUACCAGUGAAUUUAUAUUUAUUAGCAGUGAUGUUGCAUUCCAAGUACACCCUUGGCAGCGUAUGGGAUAGG [Ex Theophylline B K4 22] | 147 nM | 204 nM | 178 nM | 172 nM | 140 nM
CCUAUCUCGUAGGAUACCAGACUAUGAUCUAUGAUCAAUGCCAUCACCGAGUGAUGUUCGGUCCCUUGGCAGCCUAUGAGAUGGG [#13 K4 Theophylline B Exclusion] | 166 nM | 147 nM | 159 nM | 221 nM | 154 nM
CCUGCAGCUGUAACCGAGUGAUGCUACGGACGAGGACCGGUACGGCCGCCACUCGCCAGUGAUGUUGGUGUGGGAGGACGUAACU [KL-XTryp-A22] | 200 nM | 140 nM | 190 nM | 178 nM | 199 nM
CCUUCUCUUGGUAGUGAUGUUAUCAAGGACAAGGAUAUCAUCUCAAUGAGAAGGUGUCCUUGAUAACAUGGAGGUCUGAAACAGA [Omei KL FMN A Exc C v8] | 65.5 nM | 352 nM | 174 nM | 455 nM | 615 nM
CCUUUCAGUUACGAUACCAGUCUAAUAUAUUUGAUCAAUACCCUCGCCGAGUGAUGUUCGGACCCUUGGCAGCGUCUGGGACAGG [gbbymullin] | 526 nM | 428 nM | 525 nM | 418 nM | 337 nM
CGACUAGUCUUGCAACCCUAGUCGAUAGACUAGGAUAUCAGGAAACUGAGAAGGAGUCUACUUGCAGUGAUGUUGCAAGAAUAAU [[F]''-[K]'-[F]'-[F1]-[F2]-[K1]-[K2]_Design6] | 163 nM | 176 nM | 170 nM | 168 nM | 156 nM
CGAGAAAGAGCGACUGGCGAUCUGUCUGAAGGAGCGGGUGCUAGCCCAGGUAGGUCGCAGACCUUGACGCCAGUGAUGUUGGCGG [Ritiatso] | 220 nM | 180 nM | 208 nM | 252 nM | 177 nM
CGCAGUGAUGUUGCGAGCAGCUACAGGGAAGGAGCGCUUUAGUAAGCAGGUAGGUCGCCCACGCAGUGAUGUUGCGUCAUAGGGU [Exclusion Arginine A GF 20] | 158 nM | 123 nM | 117 nM | 100 nM | 111 nM
CGCAGUGAUGUUGCGAGUAGCUACAGGGAAGGAGCGUGCUAGAGCACAGGUAGGUCGCCCACGCAGUGAUGUUGUGUCAAAGGGU [Exclusion Arginine A GF 11] | 167 nM | 168 nM | 165 nM | 179 nM | 146 nM
CGCAGUGAUGUUGCUAUUGUUCUUGGUUAACGAGGACCGGUACGGCCGCCACUCGAUGUCUGUCUAGUCCAGUGUUUUUUUGAGU [whbob_EX_Tryp_A_t9] | 513 nM | 493 nM | 592 nM | 571 nM | 310 nM
CGCCACGACUGAAGGAGCGCGCCAGUGAUGUUGGACGGCUUUGUCAAGGAAACUGCACCGGUGCAGGUAGGUCGCAGUUCGUGGU [Quisbiri] | 398 nM | 421 nM | 537 nM | 588 nM | 362 nM
CGCCGCAAGGCGAGCGCUCCCACUCCGGAAGGAGCGCCCGCAAGGGCAGGUAGGUCGCCGGAGUGAUGUUCCGGUGGAGGGCUCG [#2 Exclusion - Arginine A Attempt #15 (Inspired by Omei)] | 395 nM | 207 nM | 376 nM | 222 nM | 439 nM
CGCCGUAAGGCGGUCGCUCCCACUCCGGAAGGAGCGCCCGCAAGGGCAGGUAGGUCGCCGGAGUGAUGUUCCGGUGGAGGGACCG [#2 Exclusion - Arginine A Attempt #7 (Inspired by Omei)] | 207 nM | 161 nM | 260 nM | 216 nM | 186 nM
CGCGCGCGCCGCAAGGCGCGCGCGAACGAUACCAGUAUAUAAGAAUACCCUUGGCAGCGUAAGAAAGCUAUAGUGAUGUUGUAGA [#19 K4 Theophylline A Same State] | 254 nM | 121 nM | 226 nM | 265 nM | 273 nM

Sequence | apparent KD of K4 kissing-loop reporter (input ligand: FMN 200 uM) | apparent KD of K4 kissing-loop reporter (input ligand: arginine 13.2 mM) | apparent KD of K4 kissing-loop reporter (input ligand: none) | apparent KD of K4 kissing-loop reporter [1] | apparent KD of K4 kissing-loop reporter [2]
CGGAACGCAUCGGCCGCCACUUUUAUCUGCAGUGAUGUUGCAGUAUCCGAGCAAGGCUGUUGUGAAAGGACCGGGAUGGUCCGUU [Tibeberi] | 87.5 nM | 96.6 nM | 92.7 nM | 97.4 nM | 143 nM
CGGUUAUAGCAGGAUACCAGUACCCAUUAUGUACGUUUAUAGUAGAGUGAUGUUCUAAAGUACCCUUGGCAGCUUCCCGUGACCC [#23 K4 Theophylline B Exclusion] | 150 nM | 199 nM | 168 nM | 265 nM | 127 nM
CGUGAGGACCUGAGGUGAUGUAUAGUAUCGCGAGGACCGGUACGGCCGCCACUCGUGAAGAGAAAGGAGUGAUGUUCCGUAAGGG | 474 nM | 470 nM | 470 nM | 677 nM | 138 nM
CGUGAGUGAUGUUCACGAGGCUUGUUUCUAGAGGAUAUUCACUUUAGAAGAAGGCUAGAGAUCUAUAUCGUGAUGCUCGAUAACG [FMN A Ex t1] | 295 nM | 247 nM | 197 nM | 260 nM | 155 nM
CGUGCCCAGCCGGAUACCAGUGACCCGCUGGGAACCGCGGGCCCAGAGUGAUGUUCGGGACACCCUUGGCAGCCGCCUGGGCGGG [#2 Same State - Theophylline B Attempt #15 (HarryS)] | 1020 nM | 392 nM | 1100 nM | 512 nM | 453 nM
CGUUCCUCUGUCGAUACCAGCUUCAGUUGGCGGCCAGUGAUGUUGGUAUCGCCGAUGCCAAGCCCUUGGCAGCGACAUGAGAACC [Uslaessobi] | 200 nM | 166 nM | 166 nM | 105 nM | 172 nM
CGUUUAUUGCAGGAUACCAGUACCCAUUAUGUACGUUUAUAGUAGAGUGAUGUUCUAAAGUACCCUUGGCAGCUUCCCGUGACCC [#22 K4 Theophylline B Exclusion] | 119 nM | 193 nM | 142 nM | 188 nM | 90.3 nM
CUAUAAGUGCCGAGUGAUGUUCGGCCAAUACGAGGACCGGUACGGCCGCCACUCGGUCAGUGAGUGCCCACCGGGCGUGGCUGAC [Leedgeis] | 261 nM | 225 nM | 209 nM | 253 nM | 124 nM
CUAUGGAAACAUAGUAAUCGGGAAACCGAUACCAGUAUGGAAACAUACCCUUGGCAGCGGAAUGAUUAAACGGAGUGAUGUUCCG [Theophylline A K4 17] | 354 nM | 243 nM | 285 nM | 237 nM | 261 nM
CUCACAGUGAUGUUGUGGGCCGAGAGUGAUACCAGCCGUAUUUGUGGCCCUUGGCAGCGCAGAACCAGUGAUGUUGGUUACUUGG [Same State Theophylline A GF 23] | 229 nM | 286 nM | 271 nM | 277 nM | 238 nM
CUGACCAACAGCGAUACCAGUGUGGAGUGAUGUUCCCUGGUCCGGGCUGAUGUUCCCUUGCGCCCUUGGCAGCGCAGAAGCAGGU [Exclusion Theophylline B GF 13] | 433 nM | 295 nM | 359 nM | 349 nM | 338 nM
CUGAGCUGCAGCGAUACCAGUGUGGAGUGAUGUUCCCUGGUCCGGGCUGUUGUUCCCUUGCGCCCUUGGCAGCGCAGGAGCAGGG [Exclusion Theophylline B GF 15] | 506 nM | 352 nM | 422 nM | 378 nM | 383 nM
CUUAGGAGUGGUGUUGAUUAGGGAGCGGAAGGAGCGCCAAUGAUGGCAGGUAGGUCGCCGGAAUGUAGUGAUGUUGCAUAGAGGG [ExArgA.S] | 476 nM | 225 nM | 415 nM | 236 nM | 267 nM
CUUCUCCUUCCAAUCUCGGCCAACACGGGACGAGGACCGGUACGGCCGCCACUCGUGCAGUGAUGUUGCACGAUGGUGACGGAGA [Queronmaan] | 95.7 nM | 87.6 nM | 94.2 nM | 86.9 nM | 217 nM
GAAAGAAAGAAUGAUACCAGACACCCGAGUGAUGUUCGGAGCAGAGUGAUGUUCUAAUAAGUCCCUUGGCAGCAUAAAAGAAAAG [Same State Theophylline B GF 1] | 240 nM | 256 nM | 322 nM | 331 nM | 246 nM
GACAUCUAUCGCCGAUAGUGUUUAUCUUGGGAGGAUAUGUCAGCGGACAGAAGGCCCAGUGAUGUUGGGUAGAUGACCGUUGCCU [Orerditi] | 337 nM | 123 nM | 131 nM | 131 nM | 128 nM
GACGGGCAGUGAUGUUGCCGGUCUCUUGGACGAGGACCGGUACGGCCGCCACUCGAUCUGAUGCAAGAAUCGCAUCUUUUAAUAA [Biququan] | 151 nM | 103 nM | 166 nM | 312 nM | 273 nM
GACUCAUGUAGAAGGAGCGUCAGAAGUUAUAGACAUGAGUGAUGUUCAUGUUAGCUGAUUUGACAGGUAGGUCGCUACAGCAGGA [KL-SSArg B16 #analogue] | 126 nM | 100 nM | 126 nM | 114 nM | 121 nM
GAGAUAGAGGCGGCCGCCACUAGUGAUGUUAGUGAUGUUAGAAAGAGAAUAGAACAGGGAUUUGAUAGGACCGGGCCAGAUGGAG [wwemullin] | 57.6 nM | 51.3 nM | 48.9 nM | 48.7 nM | 63 nM
GAGCCAACCGUCGAUACCAGCCGCACGUCAUUCACUCAAUGCUGAGGAGCCAGUGAUGUUGGCCCUUGGCAGCGAAGCAACGAUC [theeternabot_exclusion_KL_Theo_B_43] | 97.5 nM | 91.8 nM | 93.5 nM | 93.5 nM | 93.2 nM
GAGUCGGCACAAGGAUAUAGGUGUAGUGAUGUUAUGUCUCCUUGACUCACUCGUUACCCUCAACGUCUAGAAGGUGUGAAUGCAG [theeternabot_exclusion_KL_FMN_B_46] | 328 nM | 240 nM | 290 nM | 229 nM | 251 nM
